The numbers were not newly measured in publication PMC2830912, which cites them from elsewhere.

The target in this data set is Pol III alpha subunit (Escherichia coli) (UniProt P10443).
Chain of Pol III alpha subunit (Escherichia coli) (P10443 whole entry): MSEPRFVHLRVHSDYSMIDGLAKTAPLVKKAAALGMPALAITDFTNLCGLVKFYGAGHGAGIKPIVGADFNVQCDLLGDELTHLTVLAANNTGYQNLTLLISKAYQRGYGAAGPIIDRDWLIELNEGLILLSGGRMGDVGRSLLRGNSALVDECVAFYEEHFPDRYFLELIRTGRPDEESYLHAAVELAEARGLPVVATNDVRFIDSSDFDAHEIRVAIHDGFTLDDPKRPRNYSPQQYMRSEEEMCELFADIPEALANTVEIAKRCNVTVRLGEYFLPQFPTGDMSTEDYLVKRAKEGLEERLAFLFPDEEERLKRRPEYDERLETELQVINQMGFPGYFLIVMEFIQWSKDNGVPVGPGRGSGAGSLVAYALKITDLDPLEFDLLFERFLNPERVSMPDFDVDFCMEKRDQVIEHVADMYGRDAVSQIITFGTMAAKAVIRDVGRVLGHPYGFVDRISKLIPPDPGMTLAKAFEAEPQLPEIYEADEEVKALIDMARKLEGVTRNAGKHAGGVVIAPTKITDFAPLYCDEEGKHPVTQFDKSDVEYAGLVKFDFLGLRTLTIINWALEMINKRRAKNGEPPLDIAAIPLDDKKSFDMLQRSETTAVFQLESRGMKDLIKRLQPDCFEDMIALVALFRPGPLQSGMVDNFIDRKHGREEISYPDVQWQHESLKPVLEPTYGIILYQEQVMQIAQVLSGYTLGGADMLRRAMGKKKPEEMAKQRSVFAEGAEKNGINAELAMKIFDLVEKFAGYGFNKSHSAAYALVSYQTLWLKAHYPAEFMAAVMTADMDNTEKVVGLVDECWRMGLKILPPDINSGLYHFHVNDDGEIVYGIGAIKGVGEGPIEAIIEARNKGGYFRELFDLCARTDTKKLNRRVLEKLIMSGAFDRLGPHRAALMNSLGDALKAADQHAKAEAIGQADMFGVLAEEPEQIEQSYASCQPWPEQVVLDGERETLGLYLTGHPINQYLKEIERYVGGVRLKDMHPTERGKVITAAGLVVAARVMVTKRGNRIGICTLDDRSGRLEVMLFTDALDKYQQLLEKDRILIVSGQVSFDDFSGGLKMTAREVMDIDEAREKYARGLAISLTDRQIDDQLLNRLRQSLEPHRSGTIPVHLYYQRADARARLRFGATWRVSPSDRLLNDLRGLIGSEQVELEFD

Chain of DnaX tau subunit (P06710 2-643): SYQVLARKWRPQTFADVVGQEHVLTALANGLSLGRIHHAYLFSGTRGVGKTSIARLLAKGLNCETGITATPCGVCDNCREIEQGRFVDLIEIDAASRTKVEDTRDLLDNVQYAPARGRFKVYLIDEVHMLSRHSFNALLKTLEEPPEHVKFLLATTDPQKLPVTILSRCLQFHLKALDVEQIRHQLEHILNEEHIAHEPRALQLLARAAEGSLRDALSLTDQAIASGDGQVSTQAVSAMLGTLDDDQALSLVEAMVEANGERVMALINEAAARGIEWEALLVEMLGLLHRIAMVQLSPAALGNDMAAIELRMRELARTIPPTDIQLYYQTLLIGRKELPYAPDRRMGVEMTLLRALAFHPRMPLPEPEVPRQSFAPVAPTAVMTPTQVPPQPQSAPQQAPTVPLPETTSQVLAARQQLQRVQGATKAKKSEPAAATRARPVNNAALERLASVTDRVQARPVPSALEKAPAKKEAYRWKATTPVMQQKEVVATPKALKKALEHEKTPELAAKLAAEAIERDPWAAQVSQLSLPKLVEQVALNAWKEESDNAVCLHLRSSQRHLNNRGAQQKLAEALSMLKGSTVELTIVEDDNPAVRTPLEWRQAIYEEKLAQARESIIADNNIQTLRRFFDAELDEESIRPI

Consider DnaX tau subunit (from UniProt P06710), for which the Kd is 0.07 nM.

As a reminder, the Kd is the concentration at which binding is half-saturated.
